Experimental findings from patent US8691944B2, “Fibronectin polypeptides and methods of use” (The Research Foundation for the State University of New York, priority 2005, dated 2014) are described below.

Test [1] deals with T1, PDGF-BB (Homo sapiens, UniProt P01127). The test is described as follows: Equilibrium binding of PDGF-BB to FN, FN domains and peptides. From the text: (§1) This led us to speculate that PDGF was binding to the engineered ECM through the H or HV domain since vascular endothelial GF (VEGF), a member of the PDGF superfamily, had been reported to bind H and remain active while bound.
(§2) The survival of FN-null fibroblasts in the presence to PDGF-BB required substrate coated with intact FN or FNIII8-11+a PDGF-binding FN domain. […] To address this directly, we performed equilibrium binding assays with PDGF-BB to FN adsorbed to a surface or coupled to agarose beads. In addition, we also investigated the ability of other growth factors to bind intact FN.

In test [2] the target is T1, PDGF-BB. The test is described as follows: Surface plasmon resonance kinetic binding of PDGF-BB to FN domains. To be noted: for Kd: kinetic binding. The source says:
VEGF, TGF-β1, PDGF-BB and FGF-2 bound IIICS with similar affinities (KD˜10^−7 M). […] The tested biological activities of GFs bound to a FN functional domain were retained or enhanced. […] In addition, our studies provide important information regarding the delivery of GFs and the sequestering of GFs, as appropriate, for therapeutic (e.g., surgical) or aesthetic indications, including wound healing treatments (where an aim is GF delivery) and cancer treatments (where an aim is GF sequestration). Where FN fragments are used to deliver GFs, they may be described as maintaining, activating, stabilizing or enhancing GF activity. […]

The target of test [3] is T2, TGF-β1 (Homo sapiens, UniProt P01137). The test is described as follows: Equilibrium binding of TGF-β1 to FN, FN domains and peptides. On the procedure: These peptides represent domains that follow the sequence pattern [QN]-X(1,2)-[ST]-X(0,1)-[IG]-[QS]-[KRQ]-[YTM]-[IG]-X(4,5)-X(0,1)-[KR]-X(1,2)-X(1,2)-[RT]-X(1,2)-[KQTS]-X(2)-T and that bind TGF-β1 with a certain affinity. […] We know of no other peptides in the human genome database that follow this pattern.
(§3) To determine whether FN domains bind TGF-β1 and bFGF, equilibrium and kinetic binding was performed.

The target in test [4] is T2, TGF-β1. The test is described as follows: Plasmon surface resonance kinetic binding of TGF-β1 to FN domains. Particulars: for Kd: plasmon (surface) resonance, kinetic binding.
Description: (§4) VEGF, TGF-β1, PDGF-BB and FGF-2 bound IIICS with similar affinities (KD˜10^−7 M). […] The tested biological activities of GFs bound to a FN functional domain were retained or enhanced. […] In addition, our studies provide important information regarding the delivery of GFs and the sequestering of GFs, as appropriate, for therapeutic (e.g., surgical) or aesthetic indications, including wound healing treatments (where an aim is GF delivery) and cancer treatments (where an aim is GF sequestration). Where FN fragments are used to deliver GFs, they may be described as maintaining, activating, stabilizing or enhancing GF activity.
as §3

The target of a further test is bFGF (Homo sapiens, UniProt P09038). The test is described as follows: Equilibrium binding of bFGF (FGF-2) to FN, FN domains and peptides. Particulars: method not specified (equilibrium and kinetic binding performed); read-out: KD, bFGF binding. As to the method:
as §2, §3

A further test has as its target FGF-2 (Homo sapiens, UniProt P09038). The test is described as follows: Plasmon resonance binding of FGF-2 to FN domains.
Description: as §4

Another test addresses VEGF. The test is described as follows: Plasmon resonance binding of VEGF to FN domains.
Description: as §4

A further test deals with EGF (Homo sapiens, UniProt P01133). The test is described as follows: Binding of EGF to FN, FN domains and peptides.
Description: as §4, §2, §3

The next test relates to GFs. The test is described as follows: Growth factor binding to FN domains (GFs in general).
Description: as §1

Test [5] has as its system mouse fibroblasts null for FN (FN−/−). The test is described as follows: Survival of FN-null fibroblasts on FN domains with PDGF-BB. To be noted: for FN-null cell survival / proliferation with PDGF-BB: FNIII8-11 + the named domain, or named protein. It counts as cell-based. The source says: To further investigate the response of cells to PDGF-BB bound to FN domains, we investigated the survival response of mouse fibroblasts null for FN (FN−/−). First we determined the response of FN-null cells to PDGF-BB in the absence of serum or other sources of exogenous FN. […] […] […] Importantly, differential response of FN-null cells, plated on different FN domains, to PDGF-BB was not secondary to differences in attachment as judged by cell counts two hours after plating. The FNIII8-11 central cell binding domain was present in all circumstances.

A further test concerns fibroblast chemotaxis. The test is described as follows: Fibroblast chemotaxis to GFs in the presence or absence of FN domains. The test is classed as cell-based. Particulars: in solution. As to the method: To determine whether FN functional domains modulated TGF-β1, bFGF or PDGF-BB activity in solution, fibroblast chemotaxis was performed in response to the GFs in the presence or absence of FN domains.

[6] abbreviates: method not specified (equilibrium and kinetic binding performed).

Sequence of bFGF (P09038 143-288): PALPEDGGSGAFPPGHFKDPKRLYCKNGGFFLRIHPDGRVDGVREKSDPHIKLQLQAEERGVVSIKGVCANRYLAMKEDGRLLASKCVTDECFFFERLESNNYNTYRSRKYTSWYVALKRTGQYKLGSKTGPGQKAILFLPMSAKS
Sequence of FGF-2 (P09038 143-288): as above
T1 sequence (P01127 82-190 limits assumed): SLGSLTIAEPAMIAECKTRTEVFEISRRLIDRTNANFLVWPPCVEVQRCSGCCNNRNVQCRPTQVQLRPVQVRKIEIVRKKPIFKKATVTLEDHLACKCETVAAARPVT
T2 sequence (P01137 279-390 limits assumed, species assumed): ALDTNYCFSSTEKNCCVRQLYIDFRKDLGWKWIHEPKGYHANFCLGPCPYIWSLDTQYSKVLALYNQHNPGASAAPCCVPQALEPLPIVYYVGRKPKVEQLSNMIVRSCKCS
Sequence of EGF (P01133 971-1023 limits assumed, species assumed): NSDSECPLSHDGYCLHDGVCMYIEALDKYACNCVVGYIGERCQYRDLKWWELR

B1: FNIII12-15: heparin II binding domain of FN (protein)
chain: MGSTIPAPTDLKFTQVTPTSLSAQWTPPNVQLTGYRVRVTPKEKTGPMKEINLAPDSSSVVVSGLMVATKYEVSVYALKDTLTSRPAQGVVTTLENVSPPRRARVTDATETTITISWRTKTETITGFQVDAVPANGQTPIQRTIKPDVRSYTITGLQPGTDYKIYLYTLNDNARSSPVVIDASTAIDAPSNLRFLATTPNSLLVSWQPPRARITGYIIKYEKPGSPPREVVPRPRPGVTEATITGLEPGTEYTIYVIALKNNQKSEPLIGRKKTGQEALSQTTISWAPFQDTSEYIISCHPVGTDEEPLQFRVPGTSTSATLTGLTRGATYNVIVEALKDQQRHKVREEVVTVGNSVNEGTSHHHHHHC
Consider B1, for which the equilibrium dissociation constant (Kd) (as a rule, the free concentration of one partner at which half of the binding sites on the other are occupied at equilibrium, for simple one-to-one binding) with PDGF-BB [1] was found to be 6.8 nM; in the test with PDGF-BB [2] it was 68 nM; with TGF-β1 [3] (setting [6]), 16 nM; with TGF-β1 [4], 16 nM; with bFGF, 130 nM; with FGF-2 it was 170 nM.

B2: FNIII12-13: FN type III repeats 12-13 (protein)
chain: AIPAPTDLKFTQVTPTSLSAQWTPPNVQLTGYRVRVTPKEKTGPMKEINLAPDSSSVVVSGLMVATKYEVSVYALKDTLTSRPAQGVVTTLENVSPPRRARVTDATETTITISWRTKTETITGFQVDAVPANGQTPIQRTIKPDVRSYTITGLQPGTDYKIYLYTLNDNARSSPVVIDAST
For B2, the Kd in the test with PDGF-BB [1] is 75 nM.

B3: FNIII12-V15: composite heparinII-binding and variably-spliced IIICS domains (protein)
chain: MGSAIPAPTDLKFTQVTPTSLSAQWTPPNVQLTGYRVRVTPKEKTGPMKEINLAPDSSSVVVSGLMVATKYEVSVYALKDTLTSRPAQGVVTTLENVSPPRRARVTDATETTITISWRTKTETITGFQVDAVPANGQTPIQRTIKPDVRSYTITGLQPGTDYKIYLYTLNDNARSSPVVIDASTAIDAPSNLRFLATTPNSLLVSWQPPRARITGYIIKYEKPGSPPREVVPRPRPGVTEATITGLEPGTEYTIYVIALKNNQKSEPLIGRKKTDELPQLVTLPHPNLHGPEILDVPSTVQKTPFVTHPGYDTGNGIQLPGTSGQQPSVGQQMIFEEHGFRRTTPPTTATPIRHRPRPYPPNVGEEIQIGHIPREDVDYHLYPHGPGLNPNASTGQEALSQTTISWAPFQDTSEYIISCHPVGTDEEPLQFRVPGTSTSATLTGLTRGATYNVIVEALKDQQRHKVREEVVTVGNSVNEGTSHHHHHHC
On to B3, for which the dissociation constant Kd was determined as 21 nM in the test with PDGF-BB [1]; 17 nM in the test with PDGF-BB [2]; 97 nM with TGF-β1 [3] (equilibrium binding); 37 nM with bFGF; 37 nM with FGF-2; 0.6 nM on VEGF. Moreover, the “EGF binding (in words)” value in the test with EGF is on record as “all GFs, except EGF, bound”. The “GF binding on addition of salt or acid” value with GFs (up to 2.5 M NaCl added or pH lowered to about 2.0) is “failed to demonstrate any diminution”. The “FN-null cell survival / proliferation with PDGF-BB” value in test [5] is on record as “enhance survival”. Moreover, in the test on fibroblast chemotaxis, the “chemotactic activity when assayed alone” value is listed as “no chemotactic activity”. Also, in the test with fibroblast chemotaxis, the “enhancement of chemotactic activity of TGF-β1, bFGF and PDGF-BB” value is on record as “enhanced the chemotactic activity”.

B4: FNIII3-6: recombinant FN type III repeats 3-6 (protein)
chain: MGSAPDAPPDTTVDQVDDTSIVVRWSRPQAPITGYRIVYSPSVEGSSTELNLPETANSVTLSDLQPGVQYNITIYAVEENQESTPVVIQQETTGTPRSDTVPSPRDLQFVEVTDVKVTIMWTPPESAVTGYRVDVIPVNLPGEHGQRLPISRNTFAEVTGLSPGVTYYFKVFAVSHGRESKPLTAQQTTKLDAPTNLQFVNETDSTVLVRWTPPRAQITGYRLTVGLTRRGQPRQYNVGPSVSKYPLRNLQPASEYTVSLVAIKGNQESPKATGVFTTLQPGSSIPPYNTEVTETTIVITWTPAPRIGFKLGVRPSQGGEAPREVTSDSGSIVVSGLTPGVEYVYTIQVLRDGQERDAPIVNKVVTTSHHHHHHC
Turning to B4, the entries for the “PDGF-BB binding (in words)” value in the test with PDGF-BB [1] and with PDGF-BB [2] were “did not” and “no binding”, respectively. In the test with GFs, the “binding of any GF (in words)” value is reported as “In no case did any GF bind”. Further, the “support of FN-null fibroblast survival in the presence of PDGF-BB” value in test [5] (substrate coating, FNIII8-11 alone or + named domain) is recorded as “did not support cell survival”. The “enhancement of chemotactic activity of TGF-β1, bFGF and PDGF-BB” value in the test with fibroblast chemotaxis is reported as “did not enhance”.

B5: FNIII1-7: FN type III repeats 1-7 (protein)
chain: GPVEVFITETPSQPNSHPIQWNAPQPSHISKYILRWRPKNSVGRWKEATIPGHLNSYTIKGLKPGVVYEGQLISIQQYGHQEVTRFDFTTTSTSTPVTSNTVTGETTPFSPLVATSESVTEITASSFVVSWVSASDTVSGFRVEYELSEEGDEPQYLDLPSTATSVNIPDLLPGRKYIVNVYQISEDGEQSLILSTSQTTAPDAPPDTTVDQVDDTSIVVRWSRPQAPITGYRIVYSPSVEGSSTELNLPETANSVTLSDLQPGVQYNITIYAVEENQESTPVVIQQETTGTPRSDTVPSPRDLQFVEVTDVKVTIMWTPPESAVTGYRVDVIPVNLPGEHGQRLPISRNTFAEVTGLSPGVTYYFKVFAVSHGRESKPLTAQQTTKLDAPTNLQFVNETDSTVLVRWTPPRAQITGYRLTVGLTRRGQPRQYNVGPSVSKYPLRNLQPASEYTVSLVAIKGNQESPKATGVFTTLQPGSSIPPYNTEVTETTIVITWTPAPRIGFKLGVRPSQGGEAPREVTSDSGSIVVSGLTPGVEYVYTIQVLRDGQERDAPIVNKVVTPLSPPTNLHLEANPDTGVLTVSWERSTTPDITGYRITTTPTNGQQGNSLEEVVHADQSSCTFDNLSPGLEYNVSVYTVKDDKESVPISDTIIP
Consider B5, for which the equilibrium dissociation constant (Kd) with PDGF-BB [1] was 75 nM; in the test with PDGF-BB [2], 100 nM; with TGF-β1 [3] (equilibrium binding), 17 nM; with TGF-β1 [4] it was 18 nM; with bFGF it was 4.1 nM. Moreover, the “PDGF-BB binding (in words)” value with PDGF-BB [2] is given as “all four GFs bound”. For the same molecule, the “TGF-β1 binding (in words)” value with TGF-β1 [4] (plasmon resonance) is “all four GFs bound”. Moreover, in the test with FGF-2, the “FGF-2 binding (in words)” value is “all four GFs bound”. For the same molecule, the “VEGF binding (in words)” value in the test with VEGF is given as “all four GFs bound”.

B6: FNIII12-14: recombinant FN type III repeats 12-14, heparinII-binding domain (protein)
chain: MGSAIPAPTDLKFTQVTPTSLSAQWTPPNVQLTGYRVRVTPKEKTGPMKEINLAPDSSSVVVSGLMVATKYEVSVYALKDTLTSRPAQGVVTTLENVSPPRRARVTDATETTITISWRTKTETITGFQVDAVPANGQTPIQRTIKPDVRSYTITGLQPGTDYKIYLYTLNDNARSSPVVIDASTAIDAPSNLRFLATTPNSLLVSWQPPRARITGYIIKYEKPGSPPREVVPRPRPGVTEATITGLEPGTEYTIYVIALKNNQKSEPLIGRKKTTSHHHHHHC
As for B6, the equilibrium dissociation constant (Kd) stood at 35 nM with PDGF-BB [1]; 55 nM with PDGF-BB [2]; 7.6 nM in the test with TGF-β1 [3] (setting [6]); 7.6 nM with TGF-β1 [4]; 1.9 nM with bFGF. The “FN-null cell survival / proliferation with PDGF-BB” value in test [5] was “enhance survival”. The “FN-null cell survival with PDGF” value in [5] (plastic precoated with 0.15 μM GST-tagged FNIII8-11 ± the named domain, or named protein, PDGF-BB added 1 day after plating, 3 days) is listed as “increased survival”.
